Results reported in paper doi:10.1101/2025.06.12.659244 (bioRxiv, 2025).

What was measured:
cryo-EM structure [1] = biological target: the molecule itself; assay: cryo-EM structure
SEC-MALS = biological target: the molecule itself; assay: SEC-MALS
cryo-EM structure [2] = biological target: the molecule itself; assay: cryo-EM structure; remark: listed apart in the source

| Protein | stoichiometry N (cryo-EM structure [1]) | stoichiometry N (cryo-EM structure [2]) | also measured |
| --- | --- | --- | --- |
| St3Csn2^Y212R+I213R+M215R (Interface 1 mutant of St3Csn2) (natural protein, S. thermophilus DGCC 7710, UniProt G3ECR4 1-219, looked up) MKINFSLLDEPMEVNLGTVLVIEDVSVFAQLVKEFYQYDEQSNLTIFDSKIRSIRSSELLLITDILGYDINTSQVLKLLHTDIVSQLNDKPEVRSEIDSLVSLITDIIMAECIENELDIEYDEITLLELIKALGVRIETKSCTVFEKIFEILQIFKYLVKKRILVFVNSLSYFSKDEIYQILEYTKLSQADVLFLEPRQIEGIQQFILDKDRRLRPYNN | 4 |  |  |
| St3Csn2 (accessory protein Csn2 of the S. thermophilus DGCC 7710 CRISPR3 system), homotetrameric ring (natural protein) MKINFSLLDEPMEVNLGTVLVIEDVSVFAQLVKEFYQYDEQSNLTIFDSKIRSIRSSELLLITDILGYDINTSQVLKLLHTDIVSQLNDKPEVRSEIDSLVSLITDIIMAECIENELDIEYDEITLLELIKALGVRIETKSCTVFEKIFEILQIFKYLVKKRILVFVNSLSYFSKDEIYQILEYTKLSQADVLFLEPRQIEGIQQFILDKDYILMPYNN |  |  | stoichiometry N (SEC-MALS): 4 |
| St3 Cas2 (untagged), Cas2 homodimer of the St3 Cas1-Cas2 integrase (natural protein, S. thermophilus DGCC 7710) MSYRYMRMILMFDMPTDTAEERKAYRKFRKFLLSEGFIMHQFSVYSKLLLNHTANTAMVGRLKANNPKKGNITILTVTEKQFARMIYLYGDKNTSIANSEERLVFLGDNYCDED |  | 2 |  |
| St3 Cas1 (C-terminal StrepII-Tag), Cas1 homodimer of the St3 Cas1-Cas2 integrase (enzyme, S. thermophilus DGCC 7710) MAGWRTVVVNIHSKLSYKNNHLIFRNSYKTEMIHLSEIDILLLETTDIVLTTMLVKRLVDENILVIFCDDKRLPTAFLTPYYARHDSSLQIARQIAWKENVKCEVWTAIIAQKILNQSYYLGECSFFEKSQSIMELYHGLERFDPSNREGHSARIYFNTLFGNDFTRESDNDINAALDYGYTLLLSMFAREVVVCGCMTQIGLKHANQFNQFNLASDIMEPFRPIIDRIVYQNRHNNFVKIKKELFSIFSETYLYNGKEMYLSNIVSDYTKKVIKALNQLGEEIPEFRI |  | 2 |  |
| St3 Cas1 (C-terminal HisTag), Cas1 homodimer of the St3 Cas1-Cas2 integrase (enzyme, S. thermophilus DGCC 7710) MAGWRTVVVNIHSKLSYKNNHLIFRNSYKTEMIHLSEIDILLLETTDIVLTTMLVKRLVDENILVIFCDDKRLPTAFLTPYYARHDSSLQIARQIAWKENVKCEVWTAIIAQKILNQSYYLGECSFFEKSQSIMELYHGLERFDPSNREGHSARIYFNTLFGNDFTRESDNDINAALDYGYTLLLSMFAREVVVCGCMTQIGLKHANQFNQFNLASDIMEPFRPIIDRIVYQNRHNNFVKIKKELFSIFSETYLYNGKEMYLSNIVSDYTKKVIKALNQLGEEIPEFRI | 2 |  |  |
